Data taken from FireProtDB (doi:10.1021/bi048182n).
Values joined by “and” are separate entries in the source; they are usually repeats but may differ in a detail not shown here. Equal entries are not always repeated.

Settings: Bos taurus, pH 8.4, 23 °C, GdnHCl, HPLC, Tris-HCl 0.1 M, reversible: yes, whole UniProt chain shown

B1: Alpha-lactalbumin wild type, P00711 (protein)
chain: MMSFVSLLLVGILFHATQAEQLTKCEVFRELKDLKGYGGVSLPEWVCTTFHTSGYDTQAIVQNNDSTEYGLFQINNKIWCKDDQNPHSSNICNISCDKFLDDDLTDDIMCVKKILDKVGINYWLAHKALCSEKLDQWLCEKL
denaturant m value (CaCl2 5 mM): 2.1 kcal/mol/M and 2.4 kcal/mol/M | denaturant midpoint (higher = more stable) (CaCl2 5 mM): 2.15 M and 1.4 M | unfolding free energy (CaCl2 5 mM): 4.52 kcal/mol and 3.36 kcal/mol | denaturant m value: 2.3 kcal/mol/M and 3.4 kcal/mol/M | denaturant midpoint (higher = more stable): 1.1 M and 0.4 M | unfolding free energy: 2.53 kcal/mol and 1.36 kcal/mol
